{"source": "paper PMC3786598", "about": "(Microscopy and microanalysis : the official journal of …, 2012)", "biological_target": "the molecule itself", "assay": "single-molecule stepwise photobleaching", "data": [{"protein": "prestin-eGFP (natural protein, UniProt Q9JKQ2 1-744, looked up) MDHAEENEIPVATQKYHVERPIFSHPVLQERLHVKDKVSESIGDKLKQAFTCTPKKIRNIIYMFLPITKWLPAYKFKEYVLGDLVSGISTGVLQLPQGLAFAMLAAVPPVFGLYSSFYPVIMYCFFGTSRHISIGPFAVISLMIGGVAVRLVPDDIVIPGGVNATNGTEARDALRVKVAMSVTLLSGIIQFCLGVCRFGFVAIYLTEPLVRGFTTAAAVHVFTSMLKYLFGVKTKRYSGIFSVVYSTVAVLQNVKNLNVCSLGVGLMVFGLLLGGKEFNERFKEKLPAPIPLEFFAVVMGTGISAGFNLHESYSVDVVGTLPLGLLPPANPDTSLFHLVYVDAIAIAIVGFSVTISMAKTLANKHGYQVDGNQELIALGICNSIGSLFQTFSISCSLSRSLVQEGTGGKTQLAGCLASLMILLVILATGFLFESLPQAVLSAIVIVNLKGMFMQFSDLPFFWRTSKIELTIWLTTFVSSLFLGLDYGLITAVIIALLTVIYRTQSPSYKVLGQLPDTDVYIDIDAYEEVKEIPGIKIFQINAPIYYANSDLYSNALKRKTGVNPALIMGARRKAMRKYAKEVGNANIANAAVVKVDGEVDGENATKPEEEDDEVKYPPIVIKTTFPEELQRFMPQTENVHTIILDFTQVNFIDSVGVKTLAVMVKEYGDVGIYVYLAGCSPQVVNDLTRNRFFENPALKELLFHSIHDAVLGSHVREAMAEQEASAPPPQDDMEPNATPTTPEA", "values": [{"measurement": "stoichiometry N", "value": 4}]}]}
